B1: NRC3_wobSeed13_DR0_T18G_o1 (dsDNA)
DNA 1: GCCGTCCAAGGTCAAGGGCAGTGAAAGAGACTCGAAGCGATTGACAGCGTAGAATGAAGG
DNA 2: CCTTCATTCTACGCTGTCAATCGCTTCGAGTCTCTTTCACTGCCCTTGACCTTGGACGGC
B2: NRC3_wobSeed30_DR1_G7T_o1 (dsDNA)
DNA 1: GCACTATCAGGCCAAGGGTCACTCAAGATTAGTCCGGCGATTGACAGCGTAGAATGAAGG
DNA 2: CCTTCATTCTACGCTGTCAATCGCCGGACTAATCTTGAGTGACCCTTGGCCTGATAGTGC
B3: NRC3_wobSeed112_DR4_T8A_o1 (dsDNA)
DNA 1: GCTAGCCAAGGTCAGATCGGGCCAGTATACGCTATAGCGATTGACAGCGTAGAATGAAGG
DNA 2: CCTTCATTCTACGCTGTCAATCGCTATAGCGTATACTGGCCCGATCTGACCTTGGCTAGC
B4: NRC3_wobSeed66_DR2_C15T_o1 (dsDNA)
DNA 1: GCAATACAGGGTCATTAGGCCAGAGTAGGTACGAATGCGATTGACAGCGTAGAATGAAGG
DNA 2: CCTTCATTCTACGCTGTCAATCGCATTCGTACCTACTCTGGCCTAATGACCCTGTATTGC
B5: NRC3_wobSeed66_DR2_A17T_o1 (dsDNA)
DNA 1: GCAATACAGGGTCACTTGGCCAGAGTAGGTACGAATGCGATTGACAGCGTAGAATGAAGG
DNA 2: CCTTCATTCTACGCTGTCAATCGCATTCGTACCTACTCTGGCCAAGTGACCCTGTATTGC
B6: NRC3_wobSeed66_DR2_A27G_o1 (dsDNA)
DNA 1: GCAATACAGGGTCACTAGGCCAGAGTGGGTACGAATGCGATTGACAGCGTAGAATGAAGG
DNA 2: CCTTCATTCTACGCTGTCAATCGCATTCGTACCCACTCTGGCCTAGTGACCCTGTATTGC
B7: NRC3_wobSeed101_DR4_C18T_o1 (dsDNA)
DNA 1: GCCCTTACGGGTCACTCTAGGTTATAGCATCGGAGTGCGATTGACAGCGTAGAATGAAGG
DNA 2: CCTTCATTCTACGCTGTCAATCGCACTCCGATGCTATAACCTAGAGTGACCCGTAAGGGC
B8: NRC3_wobSeed34_DR1_A24C_o1 (dsDNA)
DNA 1: GCATCGAAAGGTCGAAGGTGAGTCTACCCACCCGAAGCGATTGACAGCGTAGAATGAAGG
DNA 2: CCTTCATTCTACGCTGTCAATCGCTTCGGGTGGGTAGACTCACCTTCGACCTTTCGATGC
B9: NRC3_wobSeed29_DR1_C13G_o1 (dsDNA)
DNA 1: GCGCTTACGGGTGAAAGGTTATAGCATGAATAGAATGCGATTGACAGCGTAGAATGAAGG
DNA 2: CCTTCATTCTACGCTGTCAATCGCATTCTATTCATGCTATAACCTTTCACCCGTAAGCGC
B10: NRC3_wobSeed130_DR5_C19T_o1 (dsDNA)
DNA 1: GCCTCGAAAGGTCGTGCTTAGGTGAGTATACCAAACGCGATTGACAGCGTAGAATGAAGG
DNA 2: CCTTCATTCTACGCTGTCAATCGCGTTTGGTATACTCACCTAAGCACGACCTTTCGAGGC
B11: NRC3_wobSeed130_DR5_G16C_o1 (dsDNA)
DNA 1: GCCTCGAAAGGTCGTCCTCAGGTGAGTATACCAAACGCGATTGACAGCGTAGAATGAAGG
DNA 2: CCTTCATTCTACGCTGTCAATCGCGTTTGGTATACTCACCTGAGGACGACCTTTCGAGGC
B12: NRC3_wobSeed130_DR5_A30G_o1 (dsDNA)
DNA 1: GCCTCGAAAGGTCGTGCTCAGGTGAGTATGCCAAACGCGATTGACAGCGTAGAATGAAGG
DNA 2: CCTTCATTCTACGCTGTCAATCGCGTTTGGCATACTCACCTGAGCACGACCTTTCGAGGC
B13: NRC3_wobSeed120_DR4_A14C_o1 (dsDNA)
DNA 1: GCCCGAGTAGGTTCCGAGGGGGCATTCAGTGCGAATGCGATTGACAGCGTAGAATGAAGG
DNA 2: CCTTCATTCTACGCTGTCAATCGCATTCGCACTGAATGCCCCCTCGGAACCTACTCGGGC
B14: NRC3_wobSeed120_DR4_G10A_o1 (dsDNA)
DNA 1: GCCCGAGTAAGTTACGAGGGGGCATTCAGTGCGAATGCGATTGACAGCGTAGAATGAAGG
DNA 2: CCTTCATTCTACGCTGTCAATCGCATTCGCACTGAATGCCCCCTCGTAACTTACTCGGGC
B15: NRC3_wobSeed137_DR5_T6C_o1 (dsDNA)
DNA 1: GCATACGTAGGTTACATCCGGGTCATTCAGGCTATGGCGATTGACAGCGTAGAATGAAGG
DNA 2: CCTTCATTCTACGCTGTCAATCGCCATAGCCTGAATGACCCGGATGTAACCTACGTATGC
B16: NRC3_wobSeed137_DR5_A29T_o1 (dsDNA)
DNA 1: GCATATGTAGGTTACATCCGGGTCATTCTGGCTATGGCGATTGACAGCGTAGAATGAAGG
DNA 2: CCTTCATTCTACGCTGTCAATCGCCATAGCCAGAATGACCCGGATGTAACCTACATATGC
B17: NRC3_wobSeed82_DR3_A15T_o1 (dsDNA)
DNA 1: GCATCGAAAGGTCGTCGAGGTGAGTATACACCGTTTGCGATTGACAGCGTAGAATGAAGG
DNA 2: CCTTCATTCTACGCTGTCAATCGCAAACGGTGTATACTCACCTCGACGACCTTTCGATGC
B18: NRC3_wobSeed104_DR4_G7A_o1 (dsDNA)
DNA 1: GCTCTTATAGATCAATAGAGGTTAAGAAAGTGCGCTGCGATTGACAGCGTAGAATGAAGG
DNA 2: CCTTCATTCTACGCTGTCAATCGCAGCGCACTTTCTTAACCTCTATTGATCTATAAGAGC
B19: NRC3_wobSeed106_DR4_G6C_o1 (dsDNA)
DNA 1: GCCTCCAAAGGTCGGTTGAGGTGAGTATACGGATAAGCGATTGACAGCGTAGAATGAAGG
DNA 2: CCTTCATTCTACGCTGTCAATCGCTTATCCGTATACTCACCTCAACCGACCTTTGGAGGC
B20: NRC3_wobSeed58_DR2_G23C_o1 (dsDNA)
DNA 1: GCATCGAAAGGTCGTGAGGTGACTATACAGAAAGGCGCGATTGACAGCGTAGAATGAAGG
DNA 2: CCTTCATTCTACGCTGTCAATCGCGCCTTTCTGTATAGTCACCTCACGACCTTTCGATGC
B21: NRC3_wobSeed138_DR5_C7A_o1 (dsDNA)
DNA 1: GCGATAAAGGGTCAGCTAGAGGCCAGAGTATGGAAAGCGATTGACAGCGTAGAATGAAGG
DNA 2: CCTTCATTCTACGCTGTCAATCGCTTTCCATACTCTGGCCTCTAGCTGACCCTTTATCGC
B22: NRC3_wobSeed138_DR5_G9A_o1 (dsDNA)
DNA 1: GCGATACAAGGTCAGCTAGAGGCCAGAGTATGGAAAGCGATTGACAGCGTAGAATGAAGG
DNA 2: CCTTCATTCTACGCTGTCAATCGCTTTCCATACTCTGGCCTCTAGCTGACCTTGTATCGC
B23: NRC3_wobSeed138_DR5_A18T_o1 (dsDNA)
DNA 1: GCGATACAGGGTCAGCTTGAGGCCAGAGTATGGAAAGCGATTGACAGCGTAGAATGAAGG
DNA 2: CCTTCATTCTACGCTGTCAATCGCTTTCCATACTCTGGCCTCAAGCTGACCCTGTATCGC
B24: NRC3_wobSeed72_DR2_o1 (dsDNA)
DNA 1: GCTCGAGTAGGTTACGGGGGCATTCAGGGATGAAGAGCGATTGACAGCGTAGAATGAAGG
DNA 2: CCTTCATTCTACGCTGTCAATCGCTCTTCATCCCTGAATGCCCCCGTAACCTACTCGAGC
B25: NRC3_wobSeed5_DR0_G9A_o1 (dsDNA)
DNA 1: GCCCTTACAGGTCAAGGTTATAGCACGGGTGGTACGGCGATTGACAGCGTAGAATGAAGG
DNA 2: CCTTCATTCTACGCTGTCAATCGCCGTACCACCCGTGCTATAACCTTGACCTGTAAGGGC
B26: NRC3_wobSeed5_DR0_A22C_o1 (dsDNA)
DNA 1: GCCCTTACGGGTCAAGGTTATCGCACGGGTGGTACGGCGATTGACAGCGTAGAATGAAGG
DNA 2: CCTTCATTCTACGCTGTCAATCGCCGTACCACCCGTGCGATAACCTTGACCCGTAAGGGC
B27: NRC3_wobSeed5_DR0_T5G_o1 (dsDNA)
DNA 1: GCCCGTACGGGTCAAGGTTATAGCACGGGTGGTACGGCGATTGACAGCGTAGAATGAAGG
DNA 2: CCTTCATTCTACGCTGTCAATCGCCGTACCACCCGTGCTATAACCTTGACCCGTACGGGC
B28: NRC3_wobSeed21_DR0_A7T_o1 (dsDNA)
DNA 1: GCCGTCTAAGTTCAAGGTAACGTAACAGAAAGCAGCGCGATTGACAGCGTAGAATGAAGG
DNA 2: CCTTCATTCTACGCTGTCAATCGCGCTGCTTTCTGTTACGTTACCTTGAACTTAGACGGC
B29: NRC3_wobSeed3_DR0_A9G_o1 (dsDNA)
DNA 1: GCGCTCGGGGGACAAGGTCAGAGCTTTGTCCGTAGAGCGATTGACAGCGTAGAATGAAGG
DNA 2: CCTTCATTCTACGCTGTCAATCGCTCTACGGACAAAGCTCTGACCTTGTCCCCCGAGCGC
B30: NRC3_wobSeed119_DR4_o1 (dsDNA)
DNA 1: GCGGAACGAGGGCATTCGAGTTGATAGCATGGCGATGCGATTGACAGCGTAGAATGAAGG
DNA 2: CCTTCATTCTACGCTGTCAATCGCATCGCCATGCTATCAACTCGAATGCCCTCGTTCCGC
B31: NRC3_wobSeed140_DR5_A22G_o1 (dsDNA)
DNA 1: GCAGAATGAGGTTATACGTAGGTCAGGGAAGAAAGTGCGATTGACAGCGTAGAATGAAGG
DNA 2: CCTTCATTCTACGCTGTCAATCGCACTTTCTTCCCTGACCTACGTATAACCTCATTCTGC
B32: NRC3_wobSeed23_DR0_A9G_o1 (dsDNA)
DNA 1: GCGGAACGGGGGCAAGTTGATAGCAGAGTTTGATGGGCGATTGACAGCGTAGAATGAAGG
DNA 2: CCTTCATTCTACGCTGTCAATCGCCCATCAAACTCTGCTATCAACTTGCCCCCGTTCCGC
B33: NRC3_wobSeed142_DR5_G22T_o1 (dsDNA)
DNA 1: GCATACCAAGGTGATCGTGAGTTCGTTGATACTAACGCGATTGACAGCGTAGAATGAAGG
DNA 2: CCTTCATTCTACGCTGTCAATCGCGTTAGTATCAACGAACTCACGATCACCTTGGTATGC

Each binder was assayed against PXR:RXRa (Homo sapiens, UniProt O75469;P19793 full;full) (assay: no ligand; PBM; 270 nM : 90 nM RXRa; PBS pH 7.4, 2% milk, 0.02% Triton X-100, 1 mM DTT, BSA, 0.4 mg/ml salmon testes DNA). Conditions: tags: His kept;His cleaved; copies: 1;1; label: surface-attached array probe.
Sequence of PXR:RXRa (O75469 whole entry, chain 1 of 2): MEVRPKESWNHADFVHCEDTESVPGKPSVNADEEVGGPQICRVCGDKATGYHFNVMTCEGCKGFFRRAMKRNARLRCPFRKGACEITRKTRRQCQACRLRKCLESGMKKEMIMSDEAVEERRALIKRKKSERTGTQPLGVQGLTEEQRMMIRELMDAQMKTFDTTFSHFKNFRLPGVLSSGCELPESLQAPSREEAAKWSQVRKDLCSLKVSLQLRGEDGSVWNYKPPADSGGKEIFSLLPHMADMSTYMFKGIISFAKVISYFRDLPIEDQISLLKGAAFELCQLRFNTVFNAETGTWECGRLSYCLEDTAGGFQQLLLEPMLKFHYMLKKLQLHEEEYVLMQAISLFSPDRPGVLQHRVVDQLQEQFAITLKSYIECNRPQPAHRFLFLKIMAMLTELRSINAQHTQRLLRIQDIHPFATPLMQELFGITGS
Sequence of PXR:RXRa (P19793 whole entry, chain 2 of 2): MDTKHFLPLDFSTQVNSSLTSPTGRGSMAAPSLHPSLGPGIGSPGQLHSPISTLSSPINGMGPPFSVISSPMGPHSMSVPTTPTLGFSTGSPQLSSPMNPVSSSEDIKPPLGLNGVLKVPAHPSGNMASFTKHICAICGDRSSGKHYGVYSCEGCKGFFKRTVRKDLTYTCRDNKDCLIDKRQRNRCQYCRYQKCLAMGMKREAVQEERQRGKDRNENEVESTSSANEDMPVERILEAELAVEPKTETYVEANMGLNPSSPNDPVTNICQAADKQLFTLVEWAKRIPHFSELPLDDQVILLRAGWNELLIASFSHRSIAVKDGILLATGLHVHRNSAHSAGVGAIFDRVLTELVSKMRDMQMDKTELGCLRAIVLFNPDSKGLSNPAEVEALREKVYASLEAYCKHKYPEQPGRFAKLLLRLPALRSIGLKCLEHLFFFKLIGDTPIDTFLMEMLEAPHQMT
Summary of the method: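 Each nuclear receptor dimer, without ligand, was incubated for 1 h on custom Agilent 4×180K protein-binding microarrays. Binding was detected with antibodies against each partner (one per run), and scanned fluorescence was regression-normalized. The binding z-scores are referenced to random human genomic background probes.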
With B1 the binding signal was 3.34 PBM z-score against 500 random probes. B2 was tested, and the binding signal was 3.31 PBM z-score against 500 random probes. For B3, the binding signal was 3.44 PBM z-score against 500 random probes. B4 was tested, and the binding signal was 3.57 PBM z-score against 500 random probes. With B5 the binding signal was 3.45 PBM z-score against 500 random probes. With B6 the binding signal was 3.32 PBM z-score against 500 random probes. In the case of B7, the binding signal is reported as 3.67 PBM z-score against 500 random probes. With B8 the binding signal was 3.17 PBM z-score against 500 random probes. In the case of B9, the binding signal is reported as 3.2 PBM z-score against 500 random probes. For B10, the binding signal was 3.37 PBM z-score against 500 random probes. B11 was tested, and the binding signal was 3.28 PBM z-score against 500 random probes. With B12 the binding signal was 3.26 PBM z-score against 500 random probes. B13 was tested, and the binding signal was 3.13 PBM z-score against 500 random probes. B14 was tested, and the binding signal was 3.08 PBM z-score against 500 random probes. In the case of B15, the binding signal is reported as 3.61 PBM z-score against 500 random probes. B16 was tested, and the binding signal was 3.07 PBM z-score against 500 random probes. For B17, the binding signal was 3.66 PBM z-score against 500 random probes. In the case of B18, the binding signal is reported as 3.11 PBM z-score against 500 random probes. In the case of B19, the binding signal is reported as 3.35 PBM z-score against 500 random probes. With B20 the binding signal was 3.52 PBM z-score against 500 random probes. B21 was tested, and the binding signal was 3.54 PBM z-score against 500 random probes. For B22, the binding signal was 3.38 PBM z-score against 500 random probes. In the case of B23, the binding signal is reported as 3.18 PBM z-score against 500 random probes. With B24 the binding signal was 3.16 PBM z-score against 500 random probes. B25 was tested, and the binding signal was 3.62 PBM z-score against 500 random probes. For B26, the binding signal was 3.55 PBM z-score against 500 random probes. With B27 the binding signal was 3.48 PBM z-score against 500 random probes. With B28 the binding signal was 3.59 PBM z-score against 500 random probes. For B29, the binding signal was 3.22 PBM z-score against 500 random probes. With B30 the binding signal was 3.4 PBM z-score against 500 random probes. B31 was tested, and the binding signal was 3.29 PBM z-score against 500 random probes. In the case of B32, the binding signal is reported as 3.23 PBM z-score against 500 random probes. In the case of B33, the binding signal is reported as 3.5 PBM z-score against 500 random probes.

Source: PMC6555819, “Comprehensive study of nuclear receptor DNA binding provides a revised framework for understanding receptor specificity”
